Assay: soluble on expression in E. coli; label from the status in PepcDB or PDB records
For “MDRMYEQNQMPHNNEAEQSVLGSIIIDPELINTTQEVLLPESFYRGAHQHIFRAMMHLNEDNKEIDVVTLMDQLSTEGTLNEAGGPQYLAELSTNVPTTRNVQYYTDIVSKHALKRRLIQTADSIANDGYNDELELDAILSDAERRILELSSSRESDGFKDIRDVLGQVYETAEELDQNSGQTPGIPTGYRDLDQMTAGFNRNDLIILAARPSVGKTAFALNIAQKVATHEDMYTVGIFSLEMGADQLATRMICSSGNVDSNRLRTGTMTEEDWSRFTIAVGKLSRTKIFIDDTPGIRINDLRSKCRRLKQEHGLDMIVIDYLQLIQGSGSRASDNRQQEVSEISRTLKALARELECPVIALSQLSRGVEQRQDKRPMMSDIRESGSIEQDADIVAFLYRDDYYNRGGDEDDDDDGGFEPQTNDENGEIEIIIAKQRNGPTGTVKLHFMKQYNKFTDIDYAHADMM”, the “soluble on expression in E. coli” value was “not soluble”.
With “MNRVYVGTVSAVTDIGVFVNLNKRLRGLIHRRNLGNNRFSEDEEILVQVSGIGLSGEIDLKPVKMDGYKVVEISKEVGRVEIAELENLEHHHHHH” the “soluble on expression in E. coli” value was “not soluble”.
With “MKQTVLLLFTALFLSGCSVASADDSVPRFTEEGKYIGSADPHTIAVSLNGEETMIQVPKDKRDECESLPDQTHVLVKYTKKDNGTLQLEDIQLRKTS” the “soluble on expression in E. coli” value was “soluble”.
For “MKLSVVMPVYNEKATLRAIYEQVAAVTIDKEIILVDDCSTDGTREIVRELGATGATVVLHDRNMGKGAALRSGFRHVTGDVVLIQDADLEYDPGQYPLLIQPILNGEVDVVYGSRFLSGERSLGMSFWNRAGNRILTYLSNTLTKLELTDVETCYKVFSRDVLERITIEENRFGCEPEITAKLAKLGVRIREVGISYRGRTSAEGKKIGWRDFISSVRCIAKYTLT”, the “soluble on expression in E. coli” value was “soluble”.
With “MEMAAAVRKCATFIEEKIGKHIDVTTMAYNRLMNHIRHMVSRAATGEKLKVDLNQFIEKNYPESFALAGDICKELGKDLNHEFLDNETGYLAIHIEQIKCDEMVSE” the “soluble on expression in E. coli” value was “not soluble”.
With “MGSDKIHHHHHHMIITVINGSPRKNGATSKVLTYLYKDIERLIPDVKINYFDLSEVNPSYCIGCLNCYKMGKCINQNDKVEYIHDIITKSDGVIFGSPTYGSSVTGLFKVFTDRAHMMLERLLYRKPCIAVTTYENARGSKAISFIKSMVLDSGGYVCGSLSIKTGFNQNPITEKVESKIQKVSKKFIYCIEEKKNPPVLSQIYNFIAINAVLKPMAFKDIEQYKGIIDRWEEQGII” the “soluble on expression in E. coli” value was “not soluble”.
With “MIVVVNEQQVEVDEQTTIAALLDSLGFGDRGIAVALNFSVLPRSDWATKICELRKPVRLEVVTAVQGG” the “soluble on expression in E. coli” value was “soluble”.
In the case of “MDAGDASRLGESLDAVSAAFQSRVMELQELVLARNMYPATAIPDLAAVDVSLTAMEAQLQAVRRRLQEEREAFPKAKKLVQQSLKQQRRLQLMLANMPTGMREDVFATPLEHNSSMMFPESLNFSSAVPEVRDHDLKIKEEPTAPPKKKGRGPAPRWYISTEELDSLSSYMRGRLTLEKVNIAINEVASYADGNAHLVACPKKKLSEDTWEKALELRDIAARESVKGRHFFLETDIKGPGLKLDTTGKAILTVRASTIMLYMLPLKLPYWIE”, the “soluble on expression in E. coli” value is reported as “soluble”.
In the case of “MVKEGWMVHYTSRDNLRKRHYWRLDSKCLTLFQNESGSKYYKEIPLSEILRISSPRDFTNISQGSNPHCFEIITDTMVYFVGENNGDSSHNPVLAATGVGLDVAQSWEKAIRQALM”, the “soluble on expression in E. coli” value is reported as “soluble”.
For “MGSDKIHHHHHHMEQKICVIGFSGGQDSTTLAVWAKKRFKKVCLVGFDYAQKHSVELECAQKIASLLQLPYEIIPLDFLENITRSALFKNSNDLIGHSHAQNKDLPNSFVPNRNAIFITLLHSYAQKLGASNIALGVSQADFSGYPDCKEDFIKSIEHALNLGSNTAIKILTPLMFLNKAQEFQMAKDLGVLDLVIKETHTCYQGERKILHAYGYGCDKCPACQLRKKGFEEFQANKK”, the “soluble on expression in E. coli” value was “not soluble”.
For “PEPGKKPVSAFSKKPRSVEVAAGSPAVFEAETERAGVKVRWQRGGSDISASNKYGLATEGTRHTLTVREVGPADQGSYAVIAGSSKVKFDLKVIE”, the “soluble on expression in E. coli” value was “soluble”.
With “MGSDKIHHHHHHDDNEIEIPKAPVLEKAQLALAIKSEEGAVTKTGETTPTDADVNTLTVGVFGVDGWSVIYTKDATPNSDGTKDVGPQEVYAGEAHVVVVANAAPVIQTELAKAKDITDFIETTINLSDETLTKGLTMSSKVLDVTLVANTTNYIGYDDEVGDITVKDISGKEVYGAGPVPLVRDVASIALAGADIGNPENANYESKSFVLKEVFIASAKGVSSVASTEEWGTIEKDFFGDTHFGYLDYKVGLLFLTSPNNIDEGSYKKGLQTKYDALAKKHVENDPALNHEFYVYENTKGEVKSGESNVNEAYANHTLLIVKGDYTYLPQGAKESITKENCYYAIPVGEEVTIDGTEKRSKFYVQRNYKYEISLTIIGPGSEIPYDPMISTNVSASVKVEPWNVKTIHEEVE” the “soluble on expression in E. coli” value was “not soluble”.
For “MAHHHHHHMPTVSSSTPSPASTPTVGVPPGKVWLNADEPNDEYSLFCTEAIPPKVPGTVRIWVDGCFDMLHFGHANALRRARRLGDELFVGCHSDEEVMRFKGPPIMHAEERYEALRACKWVDHVVENYPYCTRLKDIERFEIDYVVHGDDISVDLNGRNSYQEIIDAGKFKVVKRTKGISTTDLVGRMLLCTKNHMLKSVDEVQLENSLLEHSPTMPCLTTSRKIVQFSNNSSPKPGDRIVYVDGSFDLFHIGHIRVLQKARELGDYVIAGVYEDQVVNEHKGKNYPIMSFNERVLGVLSCRYVDEVVMGVPFDVSKDVIDGLHINVVVGDKFSDLVVEEGGSTRYEVPKAMGIYHEVDSGCILSTDSLIDRVVENRLDFLKRQAEKRIKDTKSQEIKPDEYRKLREAS”, the “soluble on expression in E. coli” value was “not soluble”.
For “MPLRHWGMARGSKPVGDGAQPMAAMGGLKVLLHWAGPGGGEPWVTFSESSLTAEEVCIHIAHKVGITPPCFNLFALFDAQAQVWLPPNHILEIPRDASLMLYFRIRFYFRNWHGMNPREPAVYRCGPPGTEASSDQTAQGMQLLDPASFEYLFEQGKHEFVNDVASLWELSTEEEIHHFKNESLGMAFLHLCHLALRHGIPLEEVAKKTSFKDCIPRSFRRHIRQHSALTRLRLRNVFRRFLRDFQPGRLSQQMVMVKYLATLERLAPRFGTERVPVCHLRLLAQAEGEPCYIRDSGVAPTDPGPESAAGPPTHEVLVTGTGGIQWWPVEEEVNKEEGSSGSSGRNPQASLFGKKAKAHKAVGQPADRPREPLWAYFCDFRDITHVVLKEHCVSIHRQDNKCLELSLPSRAAALSFVSLVDGYFRLTADSSHYLCHEVAPPRLVMSIRDGIHGPLLEPFVQAKLRPEDGLYLIHWSTSHPYRLILTVAQRSQAPDGMQSLRLRKFPIEQQDGAFVLEGWGRSFPSVRELGAALQGCLLRAGDDCFSLRRCCLPQPGETSNLIIMRGARASPRTLNLSQLSFHRVDQKEITQLSHLGQGTRTNVYEGRLRVEGSGDPEEGKMDDEDPLVPGRDRGQELRVVLKVLDPSHHDIALAFYETASLMSQVSHTHLAFVHGVCVRGPENIMVTEYVEHGPLDVWLRRERGHVPMAWKMVVAQQLASALSYLENKNLVHGNVCGRNILLARLGLAEGTSPFIKLSDPGVGLGALSREERVERIPWLAPECLPGGANSLSTAMDKWGFGATLLEICFDGEAPLQSRSPSEKEHFYQRQHRLPEPSCPQLATLTSQCLTYEPTQRPSFRTILRDLTRLQPHNLADVLTVNPDSPASDPTVFHKRYLKKIRDLGEGHFGKVSLYCYDPTNDGTGEMVAVKALKADCGPQHRSGWKQEIDILRTLYHEHIIKYKGCCEDQGEKSLQLVMEYVPLGSLRDYLPRHSIGLAQLLLFAQQICEGMAYLHSQHYIHRDLAARNVLLDNDRLVKIGDFGLAKAVPEGHEYYRVREDGDSPVFWYAPECLKEYKFYYASDVWSFGVTLYELLTHCDSSQSPPTKFLELIGIAQGQMTVLRLTELLERGERLPRPDKCPCEVYHLMKNCWETEASFRPTFENLIPILKTVHEKYQGQAPSVFSVC”, the “soluble on expression in E. coli” value was “soluble”.
For “SRLYRHNLMEDVFNMENESFMQETRLMENEYSVNLPTRFYYKKRWNNGFVNIVNIFRACMVIGTPGSGKSYAIVNSYIRQLIAKGFAIYIYDYKFDDLSTIAYNSLLKNMDKYEVKPRFYVINFDDPRRSHRCNPINPEFMTDISDAYEASYTIMLNLNRTWIEKQGDFFVESPIILLAAIIWYLKIYKNGIYCTFPHAVELLNKPYSDLFTILTSYPELENYLSPFMDAWKGNAQDQLQGQIASAKIPLTRMISPQLYWVMTGNDFSLDINNPKEPKLLCVGNNPDRQNIYSAALGLYNSRIVKLINKKKQLKCAVIIDELPTIYFRGLDNLIATARSNKVGVLLGFQDFSQLTRDYGEKESKVIQNTVGNIFSGQVVGETAKTLSERFGKVLQQRQSVSINRQDVSTSINTQLDSLIPASKIANLSQGTFVGAVADNFDERIEQKIFHAEIVVDHTKISAEEKAYQKIPVINDFKDRNGNDIMMQQIQRNYDQIKADAQAIINEEMRRIKNDPELRKRLGLEDEKGKDPDKS”, the “soluble on expression in E. coli” value was “not soluble”.
For “MEAVRPDSCESGPAAPRAEERPAPEARVHFRVTRFIMEAGVKLGMQSIPIATACTIYHKFFCEINLDAYDLYLVAMSSIYLAGKVEEQHLRTRDIINVSHRYFNPGSEPLELDSRFWELRDSIVQCELLMLRVLRFQVSFQHPHKYLLHYLISLKNWLNRYSWQRTPISVTAWALLRDSYHGGLCLRFQAQHLAVAVLYLALQVYGVEVPAEGEAEKPWWQVFSDDLTKPIIDNIVSDLIQIYTMDTEIP”, the “soluble on expression in E. coli” value was “not soluble”.
For “VRRKVRRLTLAVSALVALFPAVAGCSDSGDNKPGATIPSTPANAEGRHGPFFPQCGGVSDQTVTELTRVTGLVNTAKNSVGCQWLAGGGILGPHFSFSWYRGSPIGRERKTEELSRASVEDINIDGHSGFIAIGNEPSLGDSLCEVGIQFSDDFIEWSVSFSQKPFPLPCDIAKELTRQSIANSK”, the “soluble on expression in E. coli” value was “not soluble”.
With “MAHHHHHHMEYMHHIQGVVVLNDSGNRVFVKYYLNEDMKARGVLTTLEKQRALERVIYDAVSAPKRNWAASKDGDIVLHDVHSILFHVWGSITFAIVGDIKENEMVMHTVLRCIVDALQRILKTQDITHKGILEKYDALVLAVDEVIDDGIVLETSAQNVADDVAPFMADAETDTARSALSKVNEYLKENL” the “soluble on expression in E. coli” value was “soluble”.
For “MSIRDWPEAERPREKLLEQGAAALSDAELLAIFLRTGVTGCSAVELSRRLLSEFGGLRALLEADLASFCGHLGLGVAKYAQLQAVLEMGRRHLAERLRRDSILESPQAVRDYLKARLRHEQHEVFACLFLDTRHRVLSFEVLFQGSIDGASVYPRQVVKRTLAHNAAALILTHNHPSGDARPSLADRQLTARLKEALALIDVRVLDHFIIGDGEPLSLAEYGWL”, the “soluble on expression in E. coli” value was “not soluble”.
For “MNHSIPTLRTERLTLRPLAMADFPAYRDFMASPRSTGVGGPYDLPSTWGVFCHDLANWHFFGHGALMIDLGETGECIGQIGINHGPLFPEKELGWLLYEGHEGRGYAAEAAVALRDWAFETLNLPTLVSYVSPQNRKSAAVAERIGGTLDPLAPRSDPEDLVYRYHQVKTA”, the “soluble on expression in E. coli” value was “soluble”.
In the case of “NTGFDINGMVSKIVSAERVPKQQRIDNERTNIDTSISAYGRLRESLDTMKNLMTQFRQEKAFAVRKVDTSNEQVVSATATTEAIAGNYSVDVLQLAQ”, the “soluble on expression in E. coli” value is reported as “not soluble”.
With “MKSAWMEKTYTIDGCAFHTQHRKGSSGVTIVFEAGYGTSSETWKPLMADIDDEFGIFTYDRAGIGKSGQSRAKRTADQQVKELESLLKAADVKPPYLAVSHSYGAVITGLWACKNKHDIIGMVLLDPALGDCASFTFIPEEMHKSHTRKMMLEGTHAEFSKSLQELKKRQVHLGNMPLLVLSSGERTEKFAAEQEWQNLHSSILSLSNQSGWIQAKNSSHNIHHDEPHIVHLAIYDVWCAACQQAAPLYQAVN” the “soluble on expression in E. coli” value was “not soluble”.

Source: the DeepSol protein solubility set
